What was measured:
[1] = biological target: T1, full length mouse DLL4 on overexpressing CHO or HEK293 cells (mouse, UniProt Q9JI71 27-686); test: FMAT, hNotch1/Fc on CHO-mDLL4, periplasmic extract
T1 construct: whole, on cells; also called CHO-mDLL4; mDLL4
Excerpt: (§1) All calculations are based on the FL1 total signal which comprises the average of the fluorescence per well times the number of counts per well.

[2] = biological target: T2, full length human DLL4 on overexpressing CHO or HEK293 cells (human, UniProt Q9NR61 27-685); test: FMAT, hNotch1/Fc on CHO-hDLL4, periplasmic extract
T2 construct: also called CHO-hDLL4; HEK293-hDII4
Excerpt: as §1

[3] = biological target: T1, full length mouse DLL4 on …; test: FACS on HEK293-mDLL4 cells
Experimental: In order to determine the cynomologus cross-reactivity of the VHHs, a FACS binding experiment is performed. Cynomolgus DII4 expressing HEK293 cells (transient or stable transfection) are used for a titration binding experiment of the VHHs. After a 30 minutes incubation on ice, all samples are washed and detection is performed by applying anti-c-myc˜Alexa647 (Santa Cruz Biotechnology, Santa Cruz, Calif., USA). Human and mouse DII4 overexpressing HEK293 cells are taken as reference. The mean MCF value is determined on the FACS Array and used for calculation of the EC₅₀ value (see FIG. 9).

T1 sequence (Q9JI71 27-686): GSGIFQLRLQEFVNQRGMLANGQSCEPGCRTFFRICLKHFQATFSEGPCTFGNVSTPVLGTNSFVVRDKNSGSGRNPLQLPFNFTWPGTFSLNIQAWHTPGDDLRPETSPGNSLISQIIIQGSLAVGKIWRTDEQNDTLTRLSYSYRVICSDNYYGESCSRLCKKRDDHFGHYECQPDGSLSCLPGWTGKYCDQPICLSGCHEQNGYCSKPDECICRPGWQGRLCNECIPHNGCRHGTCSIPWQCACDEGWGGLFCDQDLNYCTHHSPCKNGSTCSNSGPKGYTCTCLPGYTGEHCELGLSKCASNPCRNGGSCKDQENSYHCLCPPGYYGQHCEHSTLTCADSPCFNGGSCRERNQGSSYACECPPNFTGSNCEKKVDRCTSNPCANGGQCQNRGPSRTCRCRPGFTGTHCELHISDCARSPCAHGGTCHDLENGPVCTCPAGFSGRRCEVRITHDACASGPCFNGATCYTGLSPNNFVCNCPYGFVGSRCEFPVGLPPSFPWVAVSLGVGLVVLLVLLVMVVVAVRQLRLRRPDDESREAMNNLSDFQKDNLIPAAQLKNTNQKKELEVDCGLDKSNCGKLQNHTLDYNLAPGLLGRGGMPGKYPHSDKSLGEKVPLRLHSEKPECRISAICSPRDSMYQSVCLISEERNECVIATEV
T2 sequence (Q9NR61 27-685 limits assumed): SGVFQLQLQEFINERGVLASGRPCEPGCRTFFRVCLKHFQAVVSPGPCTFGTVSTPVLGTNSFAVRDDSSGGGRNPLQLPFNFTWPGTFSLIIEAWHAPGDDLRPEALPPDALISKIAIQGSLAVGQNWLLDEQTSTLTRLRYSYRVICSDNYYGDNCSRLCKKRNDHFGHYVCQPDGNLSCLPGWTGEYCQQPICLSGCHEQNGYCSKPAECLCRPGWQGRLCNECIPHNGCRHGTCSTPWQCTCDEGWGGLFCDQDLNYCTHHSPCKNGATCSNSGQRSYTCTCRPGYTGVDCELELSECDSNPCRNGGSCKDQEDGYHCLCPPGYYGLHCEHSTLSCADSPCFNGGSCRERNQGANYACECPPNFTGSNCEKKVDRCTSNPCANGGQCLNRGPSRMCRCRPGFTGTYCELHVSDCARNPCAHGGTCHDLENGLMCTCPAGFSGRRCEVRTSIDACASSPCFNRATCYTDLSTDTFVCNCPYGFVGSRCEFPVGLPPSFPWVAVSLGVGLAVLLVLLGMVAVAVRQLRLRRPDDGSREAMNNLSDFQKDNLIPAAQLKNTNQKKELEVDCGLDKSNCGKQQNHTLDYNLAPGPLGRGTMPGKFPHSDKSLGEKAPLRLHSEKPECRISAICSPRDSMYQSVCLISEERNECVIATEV

B1: DLLBII101G08 (VHH)
VHH: EVQLVESGGGLVQAGGSLRLSCAASGRTFSSYAMAWFRQAPGKEREFVAAIRWSGGTAYYADSVQGRFTISRDNAKNTVYLQMNSLKPEDTAVYYCANRAADTRLGPYEYDYWGQGTQVTVSS
notes: also called DLLBII101G8; 101G8; not shown: C-terminal c-myc tag and His6 tag
B1 was tested, and the “FMAT mDLL4 % inhibition” value [1] was 92%, the “FMAT hDLL4 % inhibition” value [2] was 91% and the “EC50 (read off the curve)” value [3] was 37 to 40 nM.

Source: patent US20110195494A1 (Boehringer Ingelheim, published 2011)
